Reference: the supplement of paper PMC9112550, “Optimization of the antimicrobial peptide Bac7 by deep mutational scanning” (BMC Biology, 2022)

What follows are sequences tested on Escherichia coli TOP10 (assay: shrunken log2 fold change of peptide-encoding DNA abundance (4.5 h post-induction vs induction); higher = less antimicrobial activity (less host growth inhibition)). Conditions: time post-induction: 4.5 h; library: site-saturation at positions 5, 18, 19, 20.
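Further: peptides expressed intracellularly from a pBAD plasmid library in pooled LB shake-flask culture, induced with 0.3% L-arabinose, DNA abundance read by NGS, three biological replicates, DESeq2 with apeglm shrinkage.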

Sequence	shrunken log2 fold change
RRIRWRPPRLPRPRPRPFQDPRP	-0.496
RRIRSRPPRLPRPRPRPNTTPRP	-0.194
RRIRGRPPRLPRPRPRPYARPRP	0.416
RRIRRRPPRLPRPRPRPSYGPRP	-0.83
RRIRRRPPRLPRPRPRPGCLPRP	0.702
RRIRPRPPRLPRPRPRPGRKPRP	0.199
RRIRMRPPRLPRPRPRPMARPRP	0.465
RRIRRRPPRLPRPRPRPHNRPRP	0.0584
RRIRWRPPRLPRPRPRPMYHPRP	-0.712
RRIRRRPPRLPRPRPRPYMQPRP	-0.264
RRIRLRPPRLPRPRPRPYDKPRP	-0.951
RRIRERPPRLPRPRPRPPFFPRP	0.0761
RRIRERPPRLPRPRPRPWGEPRP	-0.279
RRIRSRPPRLPRPRPRPIYMPRP	-0.533
RRIRIRPPRLPRPRPRPRPHPRP	1.98
RRIRTRPPRLPRPRPRPCLQPRP	-0.0598
RRIRCRPPRLPRPRPRPMTYPRP	-0.185
RRIRKRPPRLPRPRPRPFRPPRP	-0.0332
RRIRRRPPRLPRPRPRPYFAPRP	0.487
RRIRERPPRLPRPRPRPDNTPRP	-0.489
RRIRRRPPRLPRPRPRPHKYPRP	-0.192
RRIRRRPPRLPRPRPRPDCMPRP	0.32
RRIRHRPPRLPRPRPRPDLVPRP	-0.104
RRIRDRPPRLPRPRPRPMCLPRP	0.131
RRIRARPPRLPRPRPRPRSPPRP	0.871

Sequence	shrunken log2 fold change
RRIRSRPPRLPRPRPRPMMGPRP	0.0137
RRIRWRPPRLPRPRPRPYKMPRP	0.0642
RRIRMRPPRLPRPRPRPHWAPRP	0.00824
RRIRYRPPRLPRPRPRPCHYPRP	-0.00968
RRIRTRPPRLPRPRPRPISRPRP	-0.0253
RRIRIRPPRLPRPRPRPTMKPRP	-0.309
RRIRKRPPRLPRPRPRPSGAPRP	0.539
RRIRSRPPRLPRPRPRPMEVPRP	-0.00803
RRIRTRPPRLPRPRPRPRIVPRP	-0.0873
RRIRWRPPRLPRPRPRPFRVPRP	-0.0169
RRIRSRPPRLPRPRPRPPHSPRP	0.113
RRIRNRPPRLPRPRPRPAYEPRP	-0.0122
RRIRVRPPRLPRPRPRPPNFPRP	0.0102
RRIRKRPPRLPRPRPRPLWLPRP	0.377
RRIRKRPPRLPRPRPRPYYRPRP	-0.827
RRIRYRPPRLPRPRPRPRAQPRP	0.174
RRIRCRPPRLPRPRPRPMLCPRP	0.0786
RRIRQRPPRLPRPRPRPWDKPRP	-0.153
RRIRLRPPRLPRPRPRPHIRPRP	-0.108
RRIRERPPRLPRPRPRPLPVPRP	-0.0551
RRIRLRPPRLPRPRPRPNCCPRP	-0.0382
RRIRCRPPRLPRPRPRPFYWPRP	0.0228
RRIRCRPPRLPRPRPRPVTYPRP	0.0559
RRIRPRPPRLPRPRPRPILMPRP	-0.112
RRIRLRPPRLPRPRPRPKEWPRP	0.157

Sequence	shrunken log2 fold change
RRIRMRPPRLPRPRPRPNLLPRP	-0.103
RRIRERPPRLPRPRPRPQTFPRP	-0.0695
RRIRRRPPRLPRPRPRPNGAPRP	-0.151
RRIRCRPPRLPRPRPRPYISPRP	-0.637
RRIRKRPPRLPRPRPRPQQYPRP	0.183
RRIRQRPPRLPRPRPRPHQQPRP	-0.101
RRIRRRPPRLPRPRPRPKHVPRP	0.19
RRIRERPPRLPRPRPRPHTQPRP	-0.362
RRIRLRPPRLPRPRPRPWHKPRP	-0.0761
RRIRSRPPRLPRPRPRPGCNPRP	0.0419
RRIRTRPPRLPRPRPRPKPEPRP	0.0154
RRIRWRPPRLPRPRPRPDEPPRP	-0.00634
RRIRSRPPRLPRPRPRPVEMPRP	0.0369
RRIRHRPPRLPRPRPRPWSCPRP	-0.0195
RRIRSRPPRLPRPRPRPVCCPRP	0.183
RRIRKRPPRLPRPRPRPKSAPRP	0.656
RRIRPRPPRLPRPRPRPRGGPRP	0.605
RRIRARPPRLPRPRPRPIVNPRP	-0.178
RRIRYRPPRLPRPRPRPNHEPRP	-0.657
RRIRIRPPRLPRPRPRPHDQPRP	-0.573
RRIRARPPRLPRPRPRPSSPPRP	0.0282
RRIRPRPPRLPRPRPRPNEKPRP	0.023
RRIRERPPRLPRPRPRPYHVPRP	0.0464
RRIRTRPPRLPRPRPRPKMVPRP	-0.0237
RRIRVRPPRLPRPRPRPTCQPRP	-0.035

Sequence	shrunken log2 fold change
RRIRARPPRLPRPRPRPQPAPRP	0.679
RRIRYRPPRLPRPRPRPDYLPRP	-1.57
RRIRKRPPRLPRPRPRPFIHPRP	-0.0282
RRIRPRPPRLPRPRPRPMDEPRP	0.119
RRIRGRPPRLPRPRPRPAPWPRP	0.891
RRIRWRPPRLPRPRPRPWAFPRP	0.044
RRIRRRPPRLPRPRPRPCMVPRP	0.106
RRIRRRPPRLPRPRPRPWVEPRP	0.0269
RRIRCRPPRLPRPRPRPSPSPRP	0.128
RRIRCRPPRLPRPRPRPWCTPRP	0.023
RRIRGRPPRLPRPRPRPFQQPRP	-0.0372
RRIRIRPPRLPRPRPRPLYKPRP	-0.622
RRIRDRPPRLPRPRPRPCAMPRP	0.259
RRIRQRPPRLPRPRPRPEFQPRP	-0.0764
RRIRNRPPRLPRPRPRPTNEPRP	0.239
RRIRSRPPRLPRPRPRPLFIPRP	-0.74
RRIRQRPPRLPRPRPRPIRQPRP	0.0167
RRIRARPPRLPRPRPRPKCNPRP	0.0681
RRIRTRPPRLPRPRPRPETCPRP	-0.0408
RRIRPRPPRLPRPRPRPISRPRP	0.121
RRIRRRPPRLPRPRPRPYHEPRP	0.016
RRIRSRPPRLPRPRPRPGWGPRP	0.291
RRIRRRPPRLPRPRPRPCECPRP	0.076
RRIRIRPPRLPRPRPRPQEHPRP	-0.0111
RRIRMRPPRLPRPRPRPKEIPRP	0.38

Sequence	shrunken log2 fold change
RRIRIRPPRLPRPRPRPIDTPRP	-0.00177
RRIRGRPPRLPRPRPRPGWLPRP	1.17
RRIRSRPPRLPRPRPRPAWSPRP	0.58
RRIRYRPPRLPRPRPRPPVHPRP	-0.0526
RRIRARPPRLPRPRPRPVAPPRP	0.612
RRIRMRPPRLPRPRPRPYIAPRP	-0.038
RRIRARPPRLPRPRPRPMICPRP	0.0985
RRIRRRPPRLPRPRPRPPYQPRP	0.245
RRIRTRPPRLPRPRPRPTYYPRP	-0.359
RRIRPRPPRLPRPRPRPLAHPRP	0.183
RRIRIRPPRLPRPRPRPDQQPRP	0.062
RRIRCRPPRLPRPRPRPIDPPRP	-0.18
RRIRPRPPRLPRPRPRPFLGPRP	-0.0178
RRIRWRPPRLPRPRPRPGCPPRP	0.0461
RRIRERPPRLPRPRPRPYGKPRP	-0.00133
RRIRHRPPRLPRPRPRPIRFPRP	-0.00142
RRIRWRPPRLPRPRPRPDNHPRP	-0.299
RRIRWRPPRLPRPRPRPENLPRP	0.0583
RRIRKRPPRLPRPRPRPNRPPRP	0.0563
RRIRHRPPRLPRPRPRPLWAPRP	0.222
RRIRSRPPRLPRPRPRPNPFPRP	-0.236
RRIRLRPPRLPRPRPRPNMAPRP	-0.511
RRIRQRPPRLPRPRPRPERGPRP	0.105
RRIRTRPPRLPRPRPRPLYDPRP	-0.824
RRIRIRPPRLPRPRPRPWYGPRP	-1.24

Sequence	shrunken log2 fold change
RRIRRRPPRLPRPRPRPGAVPRP	0.431
RRIRPRPPRLPRPRPRPGGLPRP	0.131
RRIRWRPPRLPRPRPRPCLAPRP	0.329
RRIRARPPRLPRPRPRPSPEPRP	0.41
RRIRWRPPRLPRPRPRPCTCPRP	0.0236
RRIRYRPPRLPRPRPRPFGFPRP	-0.918
RRIRPRPPRLPRPRPRPDAFPRP	0.342
RRIRHRPPRLPRPRPRPIHFPRP	-0.171
RRIRLRPPRLPRPRPRPPQLPRP	0.206
RRIRARPPRLPRPRPRPNWFPRP	0.0236
RRIRCRPPRLPRPRPRPHCGPRP	-0.156
RRIRFRPPRLPRPRPRPHVIPRP	-0.196
RRIRERPPRLPRPRPRPAKRPRP	0.0249
RRIRGRPPRLPRPRPRPKKGPRP	0.765
RRIRMRPPRLPRPRPRPSGDPRP	0.839
RRIRFRPPRLPRPRPRPMGRPRP	0.103
RRIRPRPPRLPRPRPRPEYNPRP	-0.624
RRIRHRPPRLPRPRPRPVNAPRP	-0.0381
RRIRDRPPRLPRPRPRPVIEPRP	0.662
RRIRMRPPRLPRPRPRPGRPPRP	0.383
RRIRTRPPRLPRPRPRPQKRPRP	0.206
RRIRMRPPRLPRPRPRPYRDPRP	-0.018
RRIRRRPPRLPRPRPRPIGGPRP	0.205
RRIRWRPPRLPRPRPRPRPIPRP	0.434
RRIRLRPPRLPRPRPRPWCPPRP	0.0721
